{"source": "patent US20070238184A1", "about": "“Amyloid beta protein channel structure and uses thereof in identifying potential drug molecules for neurodegenerative diseases” (The Regents of the University of California, priority 2005, published 2007)", "molecules": {"B1": {"name": "SAA: human apo-serum amyloid A purchased from PeproTech (protein, UniProt P0DJI8 19-122, looked up)", "Serum amyloid A-1 protein": "RSFFSFLGEAFDGARDMWRAYSDMREANYIGSDKYFHARGNYDAAKRGPGGAWAAEVITDARENIQRFFGHGAEDSLADQAANEWGRSGKDPNHFRPAGLPEKY"}}, "assay": "Single-channel current recording in planar phospholipid bilayer membranes", "conditions": "voltage clamp, peptide added to one side, pH 7.4", "procedure": "Planar phospholipid bilayer membranes were formed as described by Mirzabekov et al. (1999) Meth. Enzymol. 294: 61-74. A bubble of lipid dissolved in heptane was placed at the end of a small (100-300 μm) Teflon tube. Silver/silver chloride electrodes connected the aqueous components bounding the membrane to a voltage clamp. Ion-channel currents through the membrane were recorded by an Axopatch amplifier (Axon Instruments, Sunnyvale, Calif.). Data were filtered at 1 kHz and stored on VHS tape. Membrane capacitance and resistance were monitored continuously to ensure the formation and stability of reproducible membranes and the proper membrane thickness. […] Peptide samples were introduced by perfusing the aqueous solution bounding one side of the membrane.", "data": [{"molecule": "B1", "values": [{"measurement": "induction of single-channel ion currents / conductances", "value": "Current jumps corresponding to the opening or closing of individual ion channels can be observed"}]}]}
